Data on one protein can be found in PMC4430201 (Nature, 2014).

This series deals with the molecule itself. The experiment in a line: crystal structure.

B1: lantibiotic dehydratase NisB (enzyme, Lactococcus lactis)
chain: MIKSSFKAQPFLVRNTILCPNDKRSFTEYTQVIETVSKNKVFLEQLLLANPKLYDVMQKYNAGLLKKKRVKKLFESIYKYYKRSYLRSTPFGLFSETSIGVFSKSSQYKLMGKTTKGIRLDTQWLIRLVHKMEVDFSKKLSFTRNNANYKFGDRVFQVYTINSSELEEVNIKYTNVYQIISEFCENDYQKYEDICETVTLCYGDEYRELSEQYLGSLIVNHYLISNLQKDLLSDFSWNTFLTKVEAIDEDKKYIIPLKKVQKFIQEYSEIEIGEGIEKLKEIYQEMSQILENDNYIQIDLISDSEINFDVKQKQQLEHLAEFLGNTTKSVRRTYLDDYKDKFIEKYGVDQEVQITELFDSTFGIGAPYNYNHPRNDFYESEPSTLYYSEEEREKYLSMYVEAVKNHNVINLDDLESHYQKMDLEKKSELQGLELFLNLAKEYEKDIFILGDIVGNNNLGGASGRFSALSPELTSYHRTIVDSVERENENKEITSCEIVFLPENIRHANVMHTSIMRRKVLPFFTSTSHNEVLLTNIYIGIDEKEKFYARDISTQEVLKFYITSMYNKTLFSNELRFLYEISLDDKFGNLPWELIYRDFDYIPRLVFDEIVISPAKWKIWGRDVNSKMTIRELIQSKEIPKEFYIVNGDNKVYLSQKNPLDMEILESAIKKSSKRKDFIELQEYFEDENIINKGEKGRVADVVVPFIRTRALGNEGRAFIREKRVSVERREKLPFNEWLYLKLYISINRQNEFLLSYLPDIQKIVANLGGNLFFLRYTDPKPHIRLRIKCSDLFLAYGSILEILKRSRKNRIMSTFDISIYDQEVERYGGFDTLELSEAIFCADSKIIPNLLTLIKDTNNDWKVDDVSILVNYLYLKCFFQNDNKKILNFLNLVSTKKVKENVNEKIEHYLKLLKVNNLGDQIFYDKNFKELKHAIKNLFLKMIAQDFELQKVYSIIDSIIHVHNNRLIGIERDKEKLIYYTLQRLFVSEEYMK
modifications: methylated prior to crystallization (residues not stated)
The term stoichiometry N denotes the number of molecules, sites or subunits per partner or assembly. For B1, the “stoichiometry N” value turned out to be 2.
